Experimental data taken from patent publication US20200199647A1, “ASSAY FOR SCREENING MODULATORS OF HOLOPHOSPHATASE ACTIVITY” (UNITED KINGDOM RESEARCH AND INNOVATION, priority 2017, published 2020).
Values belong to the substance of their own block, whether it stands above or below them.

Key:
[1] = molecular target: P-eIF2α (human eIF2α amino acids 1-185 solubility mutant, C-terminal His6-tag, phosphorylated on Ser51) (human) (UniProt P05198); experiment: thermophoresis (MST), labelled P-eIF2α, unlabelled PP1c^D95A titrated
[2] = molecular target: PP1c (human PP1cα amino acids 7-330, N-terminal Thio6/His6 tag) (human) (UniProt P62136); experiment: thermophoresis (MST), labelled PP1c, unlabelled R15A titrated
Sequence of PP1c (human PP1cα amino acids 7-330, N-terminal Thio6/His6 tag) (human) (P62136 other isoform, or with tags, fused parts or gaps): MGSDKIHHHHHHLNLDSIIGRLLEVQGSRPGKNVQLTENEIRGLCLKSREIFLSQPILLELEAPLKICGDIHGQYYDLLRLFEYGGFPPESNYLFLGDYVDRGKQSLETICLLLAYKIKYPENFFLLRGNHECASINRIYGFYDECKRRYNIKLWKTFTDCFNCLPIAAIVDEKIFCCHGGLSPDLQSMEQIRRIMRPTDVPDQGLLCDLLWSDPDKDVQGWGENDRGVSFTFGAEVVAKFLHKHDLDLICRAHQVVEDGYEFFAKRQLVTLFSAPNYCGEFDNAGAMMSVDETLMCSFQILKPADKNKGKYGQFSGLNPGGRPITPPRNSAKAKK

[3] = molecular target: P-eIF2α (human eIF2α amino acids 1-185 solubility mutant, C-terminal His6-tag, phosphorylated on Ser51) (human) (UniProt P05198); experiment: thermophoresis
Target sequence in this assay (P05198 other isoform, or with tags, fused parts or gaps mutant): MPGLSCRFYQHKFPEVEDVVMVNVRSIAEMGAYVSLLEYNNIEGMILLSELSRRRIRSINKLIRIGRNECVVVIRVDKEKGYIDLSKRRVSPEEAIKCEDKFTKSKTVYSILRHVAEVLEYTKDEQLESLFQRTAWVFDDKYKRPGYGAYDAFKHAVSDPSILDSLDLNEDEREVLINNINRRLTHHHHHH

[4] = molecular target: P-eIF2α (human eIF2α amino acids 1-185 solubility mutant, C-terminal His6-tag, phosphorylated on Ser51) (human) (UniProt P05198); experiment: thermophoresis (MST), labelled P-eIF2α with 10 µM R15A, unlabelled PP1c^D95A titrated
[5] = molecular target: PP1c (human PP1cα amino acids 7-330, N-terminal Thio6/His6 tag) (human) (UniProt P62136); experiment: thermophoresis
[6] = molecular target: P-eIF2α (human eIF2α amino acids 1-185 solubility mutant, C-terminal His6-tag, phosphorylated on Ser51) (human) (UniProt P05198); experiment: thermophoresis (MST), labelled P-eIF2α with 10 µM R15B, unlabelled PP1c^D95A titrated

- Kd [1]: 650 nM
Substance: PP1c^D95A (human PP1cα amino acids 7-330, D95A, N-terminal Thio6/His6 tag) (from UniProt P62136 7-330) (enzyme)

- Kd [2]: 60 nM
- Kd [3]: 340 nM
Substance: R15A (human PPP1R15A amino acids 325-636, N-terminal MBP-tag, C-terminal His6-tag) (from UniProt O75807 325-636)

- fold higher affinity than the isolated PP1c^D95A [4]: 5.4 times
Substance: R15A-PP1c^D95A holophosphatase complex (from UniProt O75807 325-636; P62136 7-330)

- Kd [5]: 190 nM
Substance: R15A^C (human PPP1R15A amino acids 513-636, N-terminal MBP-tag, C-terminal His6-tag) (from UniProt O75807 513-636)

- Kd [3]: 440 nM
Substance: R15A^N (human PPP1R15A amino acids 325-512, N-terminal MBP-tag, C-terminal His6-tag) (from UniProt O75807 325-512)

- Kd [3]: 550 nM
Substance: R15B (human PPP1R15B amino acids 340-698, N-terminal MBP-tag, C-terminal His6-tag) (from UniProt Q5SWA1 340-698)

- fold higher affinity than the isolated PP1c^D95A [6]: 3 times
Substance: R15B-PP1c^D95A holophosphatase complex (from UniProt P0AEX9 27-392; Q5SWA1 340-698; P62136 7-330)

- Kd [3]: 530 nM
Substance: R15B^N (human PPP1R15B amino acids 340-635, N-terminal MBP-tag, C-terminal His6-tag) (from UniProt Q5SWA1 340-635)
